To fix the notation:
T1: AVITAG CD122/CD132 heterodimer (human, UniProt P14784 27-239; P31785 23-262)
T1 construct: also called IL-2Rβ/γ
T1 sequence 1: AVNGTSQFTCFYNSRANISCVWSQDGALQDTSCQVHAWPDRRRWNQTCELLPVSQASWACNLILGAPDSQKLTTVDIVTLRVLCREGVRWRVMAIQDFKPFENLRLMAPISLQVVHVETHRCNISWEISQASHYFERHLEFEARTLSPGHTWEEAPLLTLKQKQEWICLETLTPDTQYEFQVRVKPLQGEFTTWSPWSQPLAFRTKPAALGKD
T1 sequence 2: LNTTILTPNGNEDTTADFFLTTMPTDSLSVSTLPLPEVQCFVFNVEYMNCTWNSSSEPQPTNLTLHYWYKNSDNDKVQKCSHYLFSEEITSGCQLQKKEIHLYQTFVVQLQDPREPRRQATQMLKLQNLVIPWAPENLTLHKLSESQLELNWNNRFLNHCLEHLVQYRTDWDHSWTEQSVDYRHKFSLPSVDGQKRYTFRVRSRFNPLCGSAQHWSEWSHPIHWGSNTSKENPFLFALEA

T2: CD122 (human, UniProt P14784 27-239)
T2 construct: also called IL-2Rβ; hIL-2 receptor
T2 sequence: T1 sequence 1

T3: His-tagged IL-2Rα (CD25) protein (human, UniProt P01589 22-240)
T3 construct: also called Human IL-2Rα
T3 sequence: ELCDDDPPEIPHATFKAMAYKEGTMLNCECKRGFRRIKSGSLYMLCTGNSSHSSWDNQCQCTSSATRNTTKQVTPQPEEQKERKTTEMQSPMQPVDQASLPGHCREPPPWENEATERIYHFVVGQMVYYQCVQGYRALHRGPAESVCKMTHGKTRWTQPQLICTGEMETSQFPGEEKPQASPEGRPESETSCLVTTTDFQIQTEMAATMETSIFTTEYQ

T4: His-tagged & Twin Strep-tagged human IL-2Rβ & IL-2Rγ heterodimer protein (human, UniProt P14784 27-239; P31785 23-262)
T4 construct: also called Human IL-2Rβγ; human IL-2Rβγ (His)
T4 sequence 1: T1 sequence 1
T4 sequence 2: T1 sequence 2

B1: Anti-PD-1/IL-2 fusion protein A1 (Fc fusion)
chain 1: QVQLLESGGGLVKPGGSLRLSCAASGRTYAMGWFRRAPGKESEFVAEIRWSSTFTDYADSVKGRFTISRDNAENSAYLQMNSLRAEDTAVYHCAAQTSQRGTLYDSYGQGTQVTVSSESKYGPPCPPCPAPEFLGGPSVFLFPPKPKDTLMISRTPEVTCVVVDVSQEDPEVQFNWYVDGVEVHNAKTKPREEQFNSTYRVVSVLTVLHQDWLNGKEYKCKVSNKGLPSSIEKTISKAKGQPREPQVCTLPPSQEEMTKNQVSLSCAVKGFYPSDIAVEWESNGQPENNYKTTPPVLDSDGSFFLVSRLTVDKSRWQEGNVFSCSVMHEALHNHYTQKSLSLSLGAGGGGSGGGGSGGGGSAPASSSTKKTQLQLEHLSLDLQMILNGIQSMEIDATTFKFYMPKKATELKHLQCLEEELKPLEEVLNLAQSKNFHLRPRDLISNINVIVLELKGSETTFMCEYADETATIVEFLNRWITFSESIISTLT
chain 2: QVQLLESGGGLVKPGGSLRLSCAASGRTYAMGWFRRAPGKESEFVAEIRWSSTFTDYADSVKGRFTISRDNAENSAYLQMNSLRAEDTAVYHCAAQTSQRGTLYDSYGQGTQVTVSSESKYGPPCPPCPAPEFLGGPSVFLFPPKPKDTLMISRTPEVTCVVVDVSQEDPEVQFNWYVDGVEVHNAKTKPREEQFNSTYRVVSVLTVLHQDWLNGKEYKCKVSNKGLPSSIEKTISKAKGQPREPQVYTLPPCQEEMTKNQVSLWCLVKGFYPSDIAVEWESNGQPENNYKTTPPVLDSDGSFFLYSRLTVDKSRWQEGNVFSCSVMHEALHNHYTQKSLSLSLGK
notes: The two chains form a knobs-into-holes heterodimer
B2: IL-2-IL-15 Chimera 2 (T3A, C125S) (ligand)
chain: APASSSTKKTQLQLEHLLLDLQMILNGIQSMEIDATTFKFYMPKKATELKHLQCLEEELKPLEEVLNLAQSKNFHLRPRDLISNINVIVLELKGSETTFMCEYADETATIVEFLNRWITFSQSIISTLT
notes: hIL-2 with N29-L40 replaced by an IL-15 hinge fragment-containing peptide; no fusion partner is stated
B3: IL-2-IL-15 Chimera 58 (T3A, L18C, Q126E) (ligand)
chain: B2 chain with L18C, S121C, Q122E
notes: no fusion partner is stated
B4: IL-2-IL-15 Chimera 29 (I92A, C125S) (ligand)
chain: B2 chain with A3T, I88A
notes: no fusion partner is stated
B5: IL-2-IL-15 Chimera 42 (E15K, N88A, C125S) (ligand)
chain: B2 chain with A3T, E15K, N84A
notes: no fusion partner is stated
B6: IL-2-IL-15 Chimera 46 (T3A, C125S, Q126E) (ligand)
chain: B2 chain with Q122E
notes: no fusion partner is stated
B7: IL-2-IL-15 Chimera 64 (T3A, L18C, Q126S) (ligand)
chain: B2 chain with L18C, S121C, Q122S
notes: no fusion partner is stated
B8: IL-2-IL-15 Chimera 68 (T3A, C125S, Q126T, S130R) (ligand)
chain: B2 chain with Q122T, S126R
notes: no fusion partner is stated
B9: IL-2-IL-15 Chimera 69 (T3A, L18S, C125S, Q126E) (ligand)
chain: B2 chain with L18S, Q122E
notes: no fusion partner is stated
B10: IL-2-IL-15 Chimera 56 (T3A, C125S, S130R) (ligand)
chain: B2 chain with S126R
notes: no fusion partner is stated
B11: IL-2-IL-15 Chimera 54 (T3A, C125S, Q126T) (ligand)
chain: B2 chain with Q122T
notes: no fusion partner is stated
B12: IL-2-IL-15 Chimera 44 (T3A, L18C) (ligand)
chain: B2 chain with L18C, S121C
notes: no fusion partner is stated
B13: hIL-2 Mutein (T3A, F42A, Y45A, L72G, C125S) (ligand)
chain: APASSSTKKTQLQLEHLLLDLQMILNGINNYKNPKLTRMLTAKFAMPKKATELKHLQCLEEELKPLEEVLNGAQSKNFHLRPRDLISNINVIVLELKGSETTFMCEYADETATIVEFLNRWITFSQSIISTLT
notes: no fusion partner is stated
B14: hIL-2 Mutein (T3A, R38E, F42A, K76E, C125S) (ligand)
chain: B13 chain with R38E, A45Y, G72L, K76E
notes: no fusion partner is stated

Changes are numbered by the printed parent chain. Names may count otherwise.

T5 sequence (Q15116 25-167 limits assumed): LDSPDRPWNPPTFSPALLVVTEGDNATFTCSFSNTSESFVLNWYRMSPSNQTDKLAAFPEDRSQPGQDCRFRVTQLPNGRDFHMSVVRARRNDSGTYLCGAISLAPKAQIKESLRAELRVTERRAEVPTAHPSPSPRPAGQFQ

One assay addresses T5, His-tagged human PD-1 (human, UniProt Q15116 25-167, limits assumed).
T5 construct: also called His-tagged human PD-1 protein
Briefly: BLI (OCTET RED96); fusion protein A1 captured on anti-human-Fc (AHC) biosensor, serially diluted His-tagged human PD-1 in solution. The text has this:
(§1) Anti-PD-1/IL-2 fusion protein A1 was made by co-expression of SEQ ID NOs: 160 and 161 in CHO cells. OCTET® RED96 was used to study the interaction between anti-PD-1/IL-2 fusion protein A1 and human PD-1 or IL-2 receptors. For the binding study of the human PD-1, anti-human-Fc (AHC) biosensors were used to capture anti-PD-1/IL-2 fusion protein A1. The coated biosensors were associated with serially diluted His-tagged human PD-1 protein at predetermined concentrations. For the binding study of human IL-2 receptors, anti-penta-HIS (HIS1K) biosensors were used to capture human IL-2Rα or human IL-2Rβγ (His) proteins. The coated biosensors were associated with serially diluted anti-PD-1/IL-2 fusion protein A1 at predetermined concentrations.
One may read the Kd as the equilibrium constant for the complex coming apart. Read a high Kd as lower affinity. Take B1: the affinity, expressed as Kd, was 5 nM.

For another assay, the target named is T1, AVITAG CD122/CD132 heterodimer. Put plainly: BLI (OCTET RED96); receptor loaded on biosensor, IL-2 mutein in solution at 10 to 2,000 nM. How it is done: (§2) CD122 and AVITAG CD122/CD132 heterodimer were purchased from ACROBIOSYSTEMS, Inc. The protein samples were diluted in the OCTET® kinetic buffer. […] The association and dissociation sensorgram was fitted by global or local fitting using the OCTET® Data Analysis HT software.
As to B2, binding was characterised by a dissociation constant (Kd) of 11 nM.

For B3, the Kd came to 229 nM.

Turning to B4, the affinity, expressed as Kd, was 3.5 nM.

Turning to B5, the Kd was 53 nM.

Regarding B6, the Kd came out at 219 nM.

On to B7, for which the Kd was found to be 382 nM.

B8 came in with a Kd of 32 nM.

The molecule B9 returned a Kd of 322 nM.

Take B10: the Kd came out at 12 nM.

On to B11, for which the Kd is 30 nM.

As for B12, binding was characterised by a dissociation constant (Kd) of 12 nM.

Molecule B13 displayed a Kd of 6.8 nM.

B14: binding was characterised by a dissociation constant (Kd) of 1 nM.

Another assay addresses T2, CD122. Described as above. On the procedure:
as §2
Consider B2, for which the affinity, expressed as Kd, was 104 nM.

B3: binding was characterised by a dissociation constant (Kd) of 188 nM.

The molecule B8 displayed a Kd of 466 nM.

B10: the Kd amounted to 808 nM.

B11 had a Kd of 650 nM.

In turn, B13 returned a Kd of 550 nM.

The target in the next assay is T3, His-tagged IL-2Rα (CD25) protein. Briefly: BLI (OCTET RED96); His-tagged receptor captured on anti-penta-HIS (HIS1K) biosensor, serially diluted fusion protein A1 in solution.
Description: as §1
As to B1, the binding result is listed as “no binding”.

The target in another assay is T4, His-tagged & Twin Strep-tagged human …. Put plainly: BLI (OCTET RED96); His-tagged receptor heterodimer captured on anti-penta-HIS (HIS1K) biosensor, serially diluted fusion protein A1 in solution.
Description: as §1
In turn, B1 came in with an equilibrium dissociation constant (Kd) of 12 nM.

Values taken from patent publication US20260226126A1 (ANWITA BIOSCIENCES, published 2026).
